Broadly, the Kd is a measure of binding affinity in units of concentration. Low values mean a tighter complex, high ones a looser complex.

Among the data in paper PMC9487866 (Immunity, 2022) are Kd values, retold here.

In the experiment the target is Pfs48/45-6C wild type (Plasmodium falciparum 3D7, UniProt Q8I6T1). The experiment is described as follows: BLI. The note with it: both partners purified.
Pfs48/45-6C wild type, sequence (Q8I6T1 291-428): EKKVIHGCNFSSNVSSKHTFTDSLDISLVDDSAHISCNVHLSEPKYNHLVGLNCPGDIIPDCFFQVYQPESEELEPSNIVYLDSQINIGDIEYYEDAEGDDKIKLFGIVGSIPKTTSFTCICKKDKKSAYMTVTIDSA

B1: TB31F Fab (Fab, V domains shown)
VH: EVQLVQSGGGLVQPGGSLRLSCAASGFTFNNYWMSWVRQAPGKGLEWVSSISNIGGTIYYPDSVKGRFTISRDNSKNTLYLQMNSLRAEDTAVYYCTRDLRMSDYFDYWGQGTMVTVSS
VL: NFMLTQPHSVSESPGKTVTISCTRSTGNIGSNYVSWYQQRPGSSPTTVIYRDDQRPSGVPDRFSGSIDRSSNSASLTISGLKTEDEADYYCHSYSTGMYIFGGGTKLTVL
Molecule B1 registered a Kd of 3.1 nM.
